Measurements as given in the supplement of paper PMC6757056.
± gives the standard deviation of the averaged measurements.

B1: library; a variant is named by its letters at N, in order (parent)
chain: GCUGUCACCGAGAAACUGUGAAGUAUAUCUUAAACCUGGGCACUUAAAAGAUAUAUGGAGUUAGUAGUGCAACCUGCUCGGUCUGAUGAGUCCNNNNNNGGACGAAACAGC

How the values were obtained:
cyclic di-GMP [1] = variants of: B1; assay: FACS-Seq fitted mean relative fluorescence mCherry/BFP without ligand (log10 relative fluorescence); HEK293T; ligand: cyclic di-GMP (c-di-GMP-II aptamer); higher = higher reporter protein expression; settings: ligand present: no
Outline: (§1)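 Fluorescence figures are normalized fitted normal means of sequenced bin counts. Enriched, lentivirally transduced HEK293T libraries with a ribozyme-switch mCherry reporter and EF1α-BFP were held 48 h with or without ligand, then sorted into 6 mCherry/BFP bins. PCR-amplified, barcoded genomic DNA from each bin was sequenced on MiSeq. Means of log10(mCherry/BFP) were scaled to five spiked-in control ribozymes.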

cyclic di-GMP [2] = variants of: B1; assay: normalized RNA/DNA level without ligand (relative to sTRSVctl = 100) (log10 (% of sTRSVctl)); HEK293T; ligand: cyclic di-GMP (c-di-GMP-II aptamer); higher = less ribozyme self-cleavage, higher mRNA level; settings: reporter: mCherry (pCS4076), ligand present: no
Outline: (§2)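 For each 6-well well, 4 µg of library plasmid encoding mCherry-linked ribozyme switches, or eGFP-linked ones in some ligand experiments, was transfected into HEK293T. Any ligand was added 1 h before transfection, and RNA was extracted with EDTA 72 h after it, then reverse-transcribed, amplified, barcoded and sequenced. RNA level was obtained by dividing RNA reads by DNA reads, normalizing to a spiked-in non-cleaving sequence or to the top sequences, then scaling and log-transforming. The top set was 25 sequences, scaling was ×100 with log10, and ≥100 DNA reads were required.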

cyclic di-GMP [3] = variants of: B1; assay: FACS-Seq fitted mean relative fluorescence mCherry/BFP with ligand (log10 relative fluorescence); HEK293T; ligand: cyclic di-GMP (c-di-GMP-II aptamer); ligand concentration (+) FACS-Seq: 1 mM; higher = higher reporter protein expression; settings: ligand present: yes
Outline: as §1

cyclic di-GMP [4] = variants of: B1; assay: normalized RNA/DNA level with ligand (relative to sTRSVctl = 100) (log10 (% of sTRSVctl)); HEK293T; ligand: cyclic di-GMP (c-di-GMP-II aptamer); ligand concentration (+) RNA-Seq: 1 mM; higher = less ribozyme self-cleavage, higher mRNA level; settings: reporter: mCherry (pCS4076), ligand present: yes
Outline: as §2

| Variant | FACS-Seq fitted mean (log10) (cyclic di-GMP [1]) | normalized RNA/DNA level without ligand (log10) (cyclic di-GMP [2]) | FACS-Seq fitted mean (log10) (cyclic di-GMP [3]) | normalized RNA/DNA level with ligand (log10) (cyclic di-GMP [4]) |
| --- | --- | --- | --- | --- |
| AGAGGA | -0.441 ± 0.0074 | 1.4 ± 0.11 | -0.212 ± 0.025 | 1.56 ± 0.11 |
| GUGGCC | 0.168 ± 0.017 | 1.86 ± 0.033 | 0.366 ± 0.0082 | 1.97 ± 0.047 |
| GAACCC | 0.196 ± 0.15 | 1.82 ± 0.026 | 0.39 ± 0.019 | 1.91 ± 0.12 |
| CCAAUG | -0.6462 ± 0.0011 | 1.23 ± 0.16 | -0.334 ± 0.017 | 1.49 ± 0.018 |
| CGAUAU | -0.508 ± 0.039 | 1.43 ± 0.1 | -0.183 ± 0.014 | 1.62 ± 0.11 |
| AUAUCC | -0.758 ± 0.046 | 1.73 ± 0.048 | -0.565 ± 0.012 | 1.9 ± 0.11 |
| CGGCCA | -0.425 ± 0.033 | 1.57 ± 0.099 | -0.137 ± 0.0032 | 1.73 ± 0.11 |
| GCAUAG | -0.627 ± 0.0092 | 1.44 ± 0.085 | -0.39 ± 0.049 | 1.66 ± 0.093 |
| GUAACG | -0.145 ± 0.033 | 1.678 ± 0.014 | 0.124 ± 0.056 | 1.78 ± 0.14 |
| AUUGUA | -0.397 ± 0.017 | 1.56 ± 0.031 | 0.0499 ± 0.075 | 1.71 ± 0.097 |
| ACGUGU | -0.475 ± 0.012 | 1.45 ± 0.097 | -0.096 ± 0.051 | 1.69 ± 0.078 |
| GCCAUU | -0.372 ± 0.0056 | 1.58 ± 0.016 | -0.161 ± 0.13 | 1.78 ± 0.13 |
| GAUGCA | 0.17 ± 0.18 | 1.83 ± 0.066 | 0.358 ± 0.026 | 1.9 ± 0.12 |
| GUUUUG | 0.124 ± 0.17 | 1.61 ± 0.095 | 0.384 ± 0.05 | 1.8 ± 0.083 |
| UCAUUA | -0.996 ± 0.055 | 1.5 ± 0.017 | -0.732 ± 0.049 | 1.73 ± 0.15 |
| UCAUUU | -0.43 ± 0.036 | 1.637 ± 0.0076 | -0.178 ± 0.038 | 1.78 ± 0.14 |
| CGCCAA | -0.26 ± 0.2 | 1.37 ± 0.045 | 0.0764 ± 0.12 | 1.56 ± 0.15 |
| UUCGGA | -0.328 ± 0.044 | 1.58 ± 0.093 | 0.0771 ± 0.088 | 1.8 ± 0.081 |

| Variant | FACS-Seq fitted mean (log10) (cyclic di-GMP [1]) | normalized RNA/DNA level without ligand (log10) (cyclic di-GMP [2]) | FACS-Seq fitted mean (log10) (cyclic di-GMP [3]) | normalized RNA/DNA level with ligand (log10) (cyclic di-GMP [4]) |
| --- | --- | --- | --- | --- |
| UACUUU | -0.1 ± 0.037 | 1.68 ± 0.019 | 0.192 ± 0.048 | 1.84 ± 0.13 |
| UUACCA | -0.0643 ± 0.075 | 1.75 ± 0.055 | 0.275 ± 0.047 | 1.84 ± 0.1 |
| ACUAUA | -0.358 ± 0.029 | 1.53 ± 0.057 | 0.067 ± 0.087 | 1.72 ± 0.12 |
| AAUAGA | -0.609 ± 0.01 | 1.39 ± 0.12 | -0.411 ± 0.015 | 1.58 ± 0.08 |
| AAGGGG | -0.499 ± 0.044 | 1.47 ± 0.087 | -0.103 ± 0.12 | 1.63 ± 0.1 |
| UGCUUU | 0.0721 ± 0.19 | 1.73 ± 0.025 | 0.309 ± 0.091 | 1.87 ± 0.11 |
| CGUGCG | -0.833 ± 0.015 | 1.8 ± 0.02 | -0.561 ± 0.012 | 1.83 ± 0.11 |
| CGCAAA | -0.531 ± 0.011 | 1.26 ± 0.097 | -0.262 ± 0.015 | 1.47 ± 0.085 |
| UCGGUC | -0.238 ± 0.16 | 1.675 ± 0.0093 | 0.0705 ± 0.033 | 1.83 ± 0.1 |
| GUAGGA | -0.422 ± 0.02 | 1.43 ± 0.081 | -0.137 ± 0.14 | 1.64 ± 0.11 |
| AAACUU | -0.199 ± 0.0094 | 1.646 ± 0.0047 | 0.118 ± 0.0021 | 1.82 ± 0.091 |
| CCGACA | -0.323 ± 0.017 | 1.56 ± 0.068 | -0.142 ± 0.068 | 1.74 ± 0.11 |
| ACGUUU | -0.522 ± 0.028 | 1.32 ± 0.16 | -0.336 ± 0.035 | 1.52 ± 0.078 |
| AAGAAU | -0.565 ± 0.046 | 1.54 ± 0.062 | -0.225 ± 0.05 | 1.74 ± 0.073 |
| AGCCUA | -0.0368 ± 0.15 | 1.62 ± 0.011 | 0.288 ± 0.026 | 1.8 ± 0.15 |
| GCCCCA | -0.109 ± 0.025 | 1.72 ± 0.024 | 0.138 ± 0.041 | 1.86 ± 0.085 |
| UACAAC | 0.031 ± 0.034 | 1.68 ± 0.03 | 0.268 ± 0.013 | 1.8 ± 0.11 |
| CUUGAC | -0.287 ± 0.2 | 1.69 ± 0.024 | 0.101 ± 0.066 | 1.83 ± 0.085 |
